Assays:
HeLa Kyoto [1] = experiment: thermal stability score vs G1/S (z-score of summed log2 fold changes over temperatures); higher = more thermally stable than in G1/S
HeLa Kyoto [2] = experiment: solubility change mitosis vs G1/S (difference of NP-40 vs SDS log2 ratios) (log2 ratio difference); higher = more soluble in mitosis
HeLa Kyoto [3] = experiment: melting temperature (median over replicates), in situ; higher = more thermally stable
HeLa Kyoto [4] = experiment: solubility in G1/S (NP-40 vs SDS abundance) (log2 ratio); higher = more soluble; details: cell cycle stage: G1/S
[5] = cell cycle stage: early G1 (4.5 h after nocodazole release)
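For melting temperature (median over replicates), in situ in this document: HeLa Kyoto cells synchronized by double thymidine or nocodazole block, proteins quantified by TMT10plex mass spectrometry, three independent biological replicates.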
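For solubility change mitosis vs G1/S (difference of NP-40 vs SDS log2 ratios) in this document: synchronized HeLa Kyoto cells (double thymidine block for G1/S, nocodazole release for mitosis), protein amounts in NP-40 versus SDS lysates quantified by mass spectrometry, three biological replicates.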
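For solubility in G1/S (NP-40 vs SDS abundance) in this document: HeLa Kyoto cells arrested at G1/S by double thymidine block, proteins quantified by TMT10plex mass spectrometry in mild NP-40 versus SDS extracts, three biological replicates.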
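For thermal stability score vs G1/S (z-score of summed log2 fold changes over temperatures) in this document: synchronized HeLa Kyoto cells, proteins quantified by TMT10plex mass spectrometry, three biological replicates, mitosis taken 0.5 h after nocodazole release, G1/S directly after double thymidine block.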

| Sequence | thermal stability score (HeLa Kyoto [1]; [5]) | thermal stability score (HeLa Kyoto [1]; cell cycle stage: mitosis) | solubility change mitosis (log2) (HeLa Kyoto [2]) | melting temperature (HeLa Kyoto [3]; cell cycle stage: G1/S) [°C] | melting temperature (HeLa Kyoto [3]; cell cycle stage: mitosis) [°C] | solubility in G1/S (log2) (HeLa Kyoto [4]) |
| --- | --- | --- | --- | --- | --- | --- |
| MSETVICSSRATVMLYDDGNKRWLPAGTGPQAFSRVQIYHNPTANSFRVVGRKMQPDQQVVINCAIVRGVKYNQATPNFHQWRDARQVWGLNFGSKEDAAQFAAGMASALEALEGGGPPPPPALPTWSVPNGPSPEEVEQQKRQQPGPSEHIERRVSNAGGPPAPPAGGPPPPPGPPPPPGPPPPPGLPPSGVPAAAHGAGGGPPPAPPLPAAQGPGGGGAGAPGLAAAIAGAKLRKVSKQEEASGGPTAPKAESGRSGGGGLMEEMNAMLARRRKATQVGEKTPKDESANQEEPEARVPAQSESVRRPWEKNSTTLPRMKSSSSVTTSETQPCTPSSSDYSDLQRVKQELLEEVKKELQKVKEEIIEAFVQELRKRGSP [VASP] | 0.605 | 2.18 | 0.0947 | 49.7 | 50.4 | 0.466 |
| MSEVTKNSLEKILPQLKCHFTWNLFKEDSVSRDLEDRVCNQIEFLNTEFKATMYNLLAYIKHLDGNNEAALECLRQAEELIQQEHADQAEIRSLVTWGNYAWVYYHLGRLSDAQIYVDKVKQTCKKFSNPYSIEYSELDCEEGWTQLKCGRNERAKVCFEKALEEKPNNPEFSSGLAIAMYHLDNHPEKQFSTDVLKQAIELSPDNQYVKVLLGLKLQKMNKEAEGEQFVEEALEKSPCQTDVLRSAAKFYRRKGDLDKAIELFQRVLESTPNNGYLYHQIGCCYKAKVRQMQNTGESEASGNKEMIEALKQYAMDYSNKALEKGLNPLNAYSDLAEFLETECYQTPFNKEVPDAEKQQSHQRYCNLQKYNGKSEDTAVQHGLEGLSISKKSTDKEEIKDQPQNVSENLLPQNAPNYWYLQGLIHKQNGDLLQAAKCYEKELGRLLRDAPSGIGSIFLSASELEDGSEEMGQGAVSSSPRELLSNSEQLN [IFIT3] | -0.282 | 1.1 | -0.0471 | 48.2 | 49 | 0.357 |
| MSEVTRSLLQRWGASFRRGADFDSWGQLVEAIDEYQILARHLQKEAQAQHNNSEFTEEQKKTIGKIATCLELRSAALQSTQSQEEFKLEDLKKLEPILKNILTYNKEFPFDVQPVPLRRILAPGEEENLEFEEDEEEGGAGAGSPDSFPARVPGTLLPRLPSEPGMTLLTIRIEKIGLKDAGQCIDPYITVSVKDLNGIDLTPVQDTPVASRKEDTYVHFNVDIELQKHVEKLTKGAAIFFEFKHYKPKKRFTSTKCFAFMEMDEIKPGPIVIELYKKPTDFKRKKLQLLTKKPLYLHLHQTLHKE [AIDA] | -0.484 | -0.48 | 0.0508 | 50.9 | 50.5 | 0.32 |
| MSFIDPYQHIIVEHQYSHKFTVVVLRATKVTKGAFGDMLDTPDPYVELFISTTPDSRKRTRHFNNDINPVWNETFEFILDPNQENVLEITLMDANYVMDETLGTATFTVSSMKVGEKKEVPFIFNQVTEMVLEMSLEVCSCPDLRFSMALCDQEKTFRQQRKEHIRESMKKLLGPKNSEGLHSARDVPVVAILGSGGGFRAMVGFSGVMKALYESGILDCATYVAGLSGSTWYMSTLYSHPDFPEKGPEEINEELMKNVSHNPLLLLTPQKVKRYVESLWKKKSSGQPVTFTDIFGMLIGETLIHNRMNTTLSSLKEKVNTAQCPLPLFTCLHVKPDVSELMFADWVEFSPYEIGMAKYGTFMAPDLFGSKFFMGTVVKKYEENPLHFLMGVWGSAFSILFNRVLGVSGSQSRGSTMEEELENITTKHIVSNDSSDSDDESHEPKGTENEDAGSDYQSDNQASWIHRMIMALVSDSALFNTREGRAGKVHNFMLGLNLNTSYPLSPLSDFATQDSFDDDELDAAVADPDEFERIYEPLDVKSKKIHVVDSGLTFNLPYPLILRPQRGVDLIISFDFSARPSDSSPPFKELLLAEKWAKMNKLPFPKIDPYVFDREGLKECYVFKPKNPDMEKDCPTIIHFVLANINFRKYRAPGVPRETEEEKEIADFDIFDDPESPFSTFNFQYPNQAFKRLHDLMHFNTLNNIDVIKEAMVESIEYRRQNPSRCSVSLSNVEARRFFNKEFLSKPKA [PLA2G4A] | 1.55 | 0.83 | -0.0979 | 50.3 | 50.1 | -0.0367 |
| MSFPKAPLKRFNDPSGCAPSPGAYDVKTLEVLKGPVSFQKSQRFKQQKESKQNLNVDKDTTLPASARKVKSSESKESQKNDKDLKILEKEIRVLLQERGAQDRRIQDLETELEKMEARLNAALREKTSLSANNATLEKQLIELTRTNELLKSKFSENGNQKNLRILSLELMKLRNKRETKMRGMMAKQEGMEMKLQVTQRSLEESQGKIAQLEGKLVSIEKEKIDEKSETEKLLEYIEEISCASDQVEKYKLDIAQLEENLKEKNDEILSLKQSLEENIVILSKQVEDLNVKCQLLEKEKEDHVNRNREHNENLNAEMQNLKQKFILEQQEREKLQQKELQIDSLLQQEKELSSSLHQKLCSFQEEMVKEKNLFEEELKQTLDELDKLQQKEEQAERLVKQLEEEAKSRAEELKLLEEKLKGKEAELEKSSAAHTQATLLLQEKYDSMVQSLEDVTAQFESYKALTASEIEDLKLENSSLQEKAAKAGKNAEDVQHQILATESSNQEYVRMLLDLQTKSALKETEIKEITVSFLQKITDLQNQLKQQEEDFRKQLEDEEGRKAEKENTTAELTEEINKWRLLYEELYNKTKPFQLQLDAFEVEKQALLNEHGAAQEQLNKIRDSYAKLLGHQNLKQKIKHVVKLKDENSQLKSEVSKLRCQLAKKKQSETKLQEELNKVLGIKHFDPSKAFHHESKENFALKTPLKEGNTNCYRAPMECQESWK [HMMR] | -0.359 | -1.33 | 0.189 | 49.2 | 50.1 | 0.497 |
| MSFSEMNRRTLAFRGGGLVTASGGGSTNNNAGGEASAWPPQPQPRQPPPPAPPALQPPNGRGADEEVELEGLEPQDLEASAGPAAGAAEEAKELLLPQDAGGPTSLGGGAGGPLLAERNRRTLAFRGGGGGGLGNNGSSRGRPETSVWPLRHFNGRGPATVDLELDALEGKELMQDGASLSDSTEDEEEGASLGDGSGAEGGSCSSSRRSGGDGGDEVEGSGVGAGEGETVQHFPLARPKSLMQKLQCSFQTSWLKDFPWLRYSKDTGLMSCGWCQKTPADGGSVDLPPVGHDELSRGTRNYKKTLLLRHHVSTEHKLHEANAQESEIPSEEGYCDFNSRPNENSYCYQLLRQLNEQRKKGILCDVSIVVSGKIFKAHKNILVAGSRFFKTLYCFSNKESPNQNNTTHLDIAAVQGFSVILDFLYSGNLVLTSQNAIEVMTVASYLQMSEVVQTCRNFIKDALNISIKSEAPESVVVDYNNRKPVNRDGLSSSRDQKIASFWATRNLTNLASNVKIENDGCNVDEGQIENYQMNDSSWVQDGSPEMAENESEGQTKVFIWNNMGSQGIQETGKTRRKNQTTKRFIYNIPPNNETNLEDCSVMQPPVAYPEENTLLIKEEPDLDGALLSGPDGDRNVNANLLAEAGTSQDGGDAGTSHDFKYGLMPGPSNDFKYGLIPGTSNDFKYGLIPGASNDFKYGLLPESWPKQETWENGESSLIMNKLKCPHCSYVAKYRRTLKRHLLIHTGVRSFSCDICGKLFTRREHVKRHSLVHKKDKKYKCMVCKKIFMLAASVGIRHGSRRYGVCVDCADKSQPGGQEGVDQGQDTEFPRDEEYEENEVGEADEELVDDGEDQNDPSRWDESGEVCMSLDD [ZBTB10] | -0.229 | -0.231 | -0.0451 | – | 53.4 | -0.114 |

Source: the supplement of paper PMC5998384
